Results: patent publication US20230391832A1 (ISOLERE BIO, published 2023)

B1: SEQ ID NO 44 (designed binder)
chain: MATGVRAVPGNENSLEIEELARFAVDEHNKKENALLEFVRMVKAKEQYISVDKWVATMYYLTLEAKDGGKKKLYEAKVWVKYGGSCWRGGNFKELQEFKPVGDA
notes: N-terminal Met printed as (M)
B2: SEQ ID NO 30 (designed binder)
chain: MATGVRAVSGNENGLEIEELARFAVDEHNKKENALLEFVRVVKAKEQVVAGTMYYLTLEAKDGGKKKLYEAKVWVKRIVRVAVWVNFRELQEFKPVGDA
notes: N-terminal Met printed as (M)
B3: SEQ ID NO 26 (designed binder)
chain: MATGVRAVPGNENSLEIEELARFAVDEHNKKENALLEFVRVVKAKEQVVAGTMYYLTLEAKDGGKKKLYEAKVWVKIRAIVYWSGNFKELQEFKPVGDA
notes: N-terminal Met printed as (M)
B4: SEQ ID NO 39 (designed binder)
chain: MATGVRAVPGNENSLEIEELARFAVDEHNKKENALLEFVRVVKAKEQVVAGTMYYLTLEAKDGGKKKLYEAKVWVKWRAVRWWWGNFKELQEFKPVGDA
notes: N-terminal Met printed as (M)
B5: SEQ ID NO 40 (designed binder)
chain: MATGVRAVPGNENSLEIEELARFAVDEHNKKENALLEFVRVVKAKEQVVAGTMYYLTLEAKDGGKKKLYEAKVWVKVVGKWWVNINFKELQEFKPVGDA
notes: N-terminal Met printed as (M)
B6: SEQ ID NO 52 (designed binder)
chain: MATGVRAMPGNENSLEIEELARFAVDEHNKKENALLEFVRVVKAKEQVVAGTMYYLTLEAKDGGKKKLYEAKVWVKVWWVVSDPANFKELQEFKPVGDA
notes: N-terminal Met printed as (M)
B7: SEQ ID NO 47 (designed binder)
chain: MATGVRAVPGNENSLEIEELARFAVDEHNKKENALLEFVRVVKAKEQVVAGTMYYLTLEAKDGGKKKLYEAKVWVKVNIYVISPRNFKELQEFKPVGDA
notes: N-terminal Met printed as (M)
B8: SEQ ID NO 32 (designed binder)
chain: MATGVRAVPGNENSLEIEELARFAVDEHNKKENALLEFVRVVKAKEQVVAGTMYYLTLEAKDGGKKKLYEAKVWVKSRSVRIWYSNFKELQEFKPVGDA
notes: N-terminal Met printed as (M)
B9: SEQ ID NO 33 (designed binder)
chain: MATGVRAVPGNENSLEIEELARFAVDEHNKKENALLEFVRVVKAKEQVVAGTMYYLTLEAKDGGKKKLYEAKVWVKVRRDIVVPRNFKELQEFKPVGDA
notes: N-terminal Met printed as (M)
B10: SEQ ID NO 43 (designed binder)
chain: MATGVRAVPGNENSLEIEELARFAVDEHNKKENALLEFVRVVKAKEQVVAGTMYYLTLEAKDGGKKKLYEAKVWVKVRYPPNIWKNFKELQEFKPVGDA
notes: N-terminal Met printed as (M)
B11: SEQ ID NO 34 (designed binder)
chain: MATGVRAVPGNENSLEIEELARFAVDEHNKKENALLEFVRVVKAKEQVVACTMYYLTLEAKDDGKKKLYEAKVWVKSRVRVIRWGNFKELQEFKPVGDA
notes: N-terminal Met printed as (M)
B12: SEQ ID NO 48 (designed binder)
chain: MATGVRAVPGNENSLEIEELARFAVDEHNKKENALLEFVCVVKAKEQVVAGTMYYLTLEAKDGGKKKLYEAKVWVKVAPIYSVDSNFKELQEFKPVGDA
notes: N-terminal Met printed as (M)
B13: SEQ ID NO 27 (designed binder)
chain: MATGVRAVPGNENSLEIEELARFAVDEHNKKENALLEFVRVMKAKEQVVAGTMYYLTLEAKDGGKKKLYEAKVWVKGVIYAYSYSNFKELQEFKPVGDA
notes: N-terminal Met printed as (M)
B14: SEQ ID NO 37 (designed binder)
chain: MATGVRAVSGNENSLEIEELARFAVDEHNKKENALLEFVRVVKAKEQVVAGTMYYLTLEAKDGGKKKLYEAKVWVKSPVYWPKGGNFKELQEFKPVGDA
notes: N-terminal Met printed as (M)
B15: SEQ ID NO 31 (designed binder)
chain: MATGVRAVPGNENSLEIEELARFAVDEHNKKENALLEFVRVVKAKEQVVAGTMYYLTLEAKDGGKKKLYEAKVWVKISRPGWWPWNFKELQEFKPVGDA
notes: N-terminal Met printed as (M)
B16: SEQ ID NO 36 (designed binder)
chain: MATGVRAVPSNENSLEIEELARFAVDEHNKKENALLEFVRVVKAKEQVVAGTMYYLTLEAKDGGKKKLYEAKVWVKAIKYVRYKANFKELQEFKPVGDA
notes: N-terminal Met printed as (M)
B17: SEQ ID NO 45 (designed binder)
chain: MATGVRAVPGNENSLEIEELARFAVDEHNKKENALLEFVRVVKAKEQVVAGTMYYLTLEAKDGGKKKLYEAKVWVKVAAYPRASINFKELQEFKPVGDA
notes: N-terminal Met printed as (M)
B18: SEQ ID NO 38 (designed binder)
chain: MATGVRAVPGNENSLEIEELARFAVDEHNKKENALLEFVRVVKAKEQVVAGTMYYLTLEAKDGGKKKLYEAKVWVKSASYYVYSYNFKELQEFKPVGDA
notes: N-terminal Met printed as (M)
B19: SEQ ID NO 28 (designed binder)
chain: MATGVRAVPGNENSLEIEELARFAVDEHNKKENALLEFVRVVKAKEQVVAGTMYYLTLEAKDGGKKKLYEAKVWVKAGYIGRSKANFKELQEFKPVGDA
notes: N-terminal Met printed as (M)
B20: SEQ ID NO 46 (designed binder)
chain: MATGVRAVPGNENSLEIEELARFAVDEHNKKENALLEFVRVVKAKEQVVAGTMYYLTLEAKDGGKKKLYEAKVWVKIGIPIRIWSNFKELQEFKPVGDA
notes: N-terminal Met printed as (M)
B21: SEQ ID NO 29 (designed binder)
chain: MATGVRAVPGNENSLEIEELARFAVDEHNKKENALLEFVRVVKAKEQVVAGTMYYLTLEAKDGGKKKLYEAKVWVKAAGYYVYAPNFKELQEFKPVGDA
notes: N-terminal Met printed as (M)
B22: SEQ ID NO 41 (designed binder)
chain: MATGVRAVPGNENSLEIEELARFAVDEHNKKENALLEFVRVVKAKEQVVAGTMYYLTLEAKDGGKKKLYEAKVWVKARYVVYYRWNFKELQEFKPVGDA
notes: N-terminal Met printed as (M)
B23: SEQ ID NO 35 (designed binder)
chain: MATGVRAVPGNENSLEIEELARFAVDEHNKKENALLEFVRVVKAKEQVVAGTMYYLTLEAKDGGKKKLYEAKVWVKVRDIVSIRGNFKELQEFKPVGDA
notes: N-terminal Met printed as (M)
B24: SEQ ID NO 51 (designed binder)
chain: MATGVRAVPGNENSLEIEELARFAVDEHNKKENALLEFVRVVKAKEQVVAGTMYYLTLEAKDGGKKKLYEAKVWVKVRYWVDRRKNFKELQEFKPVGDA
notes: N-terminal Met printed as (M)
B25: SEQ ID NO 42 (designed binder)
chain: MATGVRAVPGNENSLEIEELARFAVDEHNKKENALLEFVRVVKAKEQVVAGTMYYLTLEAKDGGKKKLYEAKVWVKGRYSVYWYVNFKELQEFKPVGDA
notes: N-terminal Met printed as (M)
B26: SEQ ID NO 50 (designed binder)
chain: MATGVRAVPGNENSLEIEELARFAVDEHNKKENALLEFVRVVKAKEQVVAGTMYYLTLEAKDGGKKKLYEAKVWVKVRRYSPPNRNFKELQEFKPVGDA
notes: N-terminal Met printed as (M)
B27: SEQ ID NO 49 (designed binder)
chain: MATGVRAVPGNENSLEIEELARFAVDEHNKKENALLEFVRVVKAKEQVVAGTMYYLTLEAKDGGKKKLYEAKVWVKSVAIRNWYWNFKELQEFKPVGDA
notes: N-terminal Met printed as (M)
B28: SEQ ID NO 53 (designed binder)
chain: MATGVRAVPGNENSLEIEELARFAVDEHNKKENALLEFVRVVKAKEQRARYYYVNRTMYYLTLEAKDGGKKKLYEAKVWVKWVIRGDSPANFKELQEFKLVGDA
notes: N-terminal Met printed as (M)

Target: T1, AAV9 capsids (adeno-associated virus serotype 9, Assembled icosahedral capsid of about 60 subunits (VP1, VP2, VP3 from one gene). One VP1 chain is given. Example 1's screen does not say whether the capsids were full or empty.)
T1 construct: Assembled virus capsid
Experiment: ELISA, AAV9 capsids coated on plate, His-tagged variant in E. coli lysate, anti-His-HRP luminescence; signal relative to HSA (A) or to PKD2 control (B)

Binder | fold specificity for AAV9 capsids
MCDIPPFVCWWPSWCVWATWVCDGAPDCIDNYDEWICTPTP (designed binder, N-terminal Met printed as (M)) [SEQ ID NO 10] | > 3 fold
B1 | > 3 fold
B2 | > 3 fold
MCAIDNFPCNWYIDCIGATWVCDGIIDCIDIADEYDCTPTP (designed binder, N-terminal Met printed as (M)) [SEQ ID NO 12] | > 3 fold
B3 | > 3 fold
B4 | > 3 fold
B5 | > 3 fold
B6 | > 3 fold
B7 | > 3 fold
B8 | > 3 fold
B9 | > 3 fold
B10 | > 3 fold
B11 | > 3 fold
B12 | > 3 fold
B13 | > 3 fold
B14 | > 3 fold

Binder | fold specificity for AAV9 capsids
B15 | > 3 fold
B16 | > 3 fold
B17 | > 3 fold
B18 | > 3 fold
B19 | > 3 fold
B20 | > 3 fold
B21 | > 3 fold
B22 | > 3 fold
B23 | > 3 fold
B24 | > 3 fold
B25 | > 3 fold
B26 | > 3 fold
B27 | > 3 fold
MCWVKIFRCNIVGVCIVNTWVCDGRVDCSDPPDEGWCTPTP (designed binder, N-terminal Met printed as (M)) [SEQ ID NO 11] | > 3 fold
B28 | > 3 fold
